The format of series [1] is in vitro ADME. Conditions: 37 °C, polyacrylamide gel electrophoresis with autoradiography. On the procedure:
Stability of [^68Ga]Ga-GIP-C803 was studied in human plasma, wherein the agent was incubated at 37 °C for under 30 s, 5 min, 45 min, and 90 min. Thereafter, the samples were analyzed by polyacrylamide gel electrophoresis. To enable the interpretation of the results, a number of references were applied along with the molecular weight marker (Figure S2). The gel was imaged by GelDoc Go Imaging System (Biorad, Hercules, CA, USA) for protein/peptide signals and, thereafter, exposed to a phosphor-imager screen overnight and digitalized using the Cyclone Phosphor Imager system (PerkinElmer) for radioactivity signals. The amount of the sample radioactivity loaded on the gel was controlled by a reference drop of the same sample volume on a filter paper exposed to the same screen. The images were analyzed by ImageJ (NIH, Bethesda, MD, USA) and Image Lab (Biorad) software.
Radiolabeling of C803‐GIP
Figure 1S. Typical HPLC-chromatograms with UV absorption profile (lower panel) and radioactivity signal profile (upper panel) of [68Ga]Ga-C803-GIP.
Stability of [68Ga]Ga‐GIP‐C803 in human plasma
Stability of [68Ga]Ga-GIP-C803 was studied in human plasma, wherein the agent was incubated at 37 °C for under 30 seconds, 5 min, 45 min and 90 min. Thereafter, the samples were analyzed by polyacrylamide gel electrophoresis. […] The images were analyzed by ImageJ (NIH, US) and Image Lab (Biorad) software. […]

A short description of series [2]: post-production stability of the 68Ga-labeled product at room temperature (UV-Radio-HPLC). In kind it is physicochemical. Conditions: ambient temperature, for at least 2 h, with addition of ascorbic acid. The source says: The ^68Ga-labeling procedure was optimized in terms of the radiochemical yield and required optimization of such factors as temperature, heating time, radical scavenger content, buffer concentration, pH, and product purification mean. The labeling was reproducible with a high non-decay corrected radiochemical yield of 61.1 ± 2.9% and a molar activity of 59.8 ± 4.4 MBq/nmol at the end of the synthesis (Figure 2). The radioactivity at the end of the synthesis was 424 ± 29 MBq with a radiochemical purity of 94.5 ± 0.3% (for the chromatogram, see Supplementary Materials, Figure S1). […]
The ^68Ge/^68Ga generator (pharmaceutical grade, GalliaPharm®, Eckert & Ziegler, Berlin, Germany) eluate was fractionated, and the top fraction of 3.5 mL containing approximately 90% of the radioactivity was collected for the radiolabeling. […] The radiochemical purity and the peptide concentration in the product were determined by high-pressure liquid chromatography (HPLC). […] The stability of the product at room temperature was monitored for 2 h and assessed by UV-Radio-HPLC. […] The total radioactivity of the product was then measured in an ionization chamber. The radioactivity recovery from the analytical column was controlled by performing an analysis of the product, generator eluate, and the product spiked with the generator eluate with and without column. […]

As for `CC[C@H](C)[C@H](NC(=O)[C@H](CO)NC(=O)[C@H](Cc1ccc(O)cc1)NC(=O)[C@H](CC(=O)O)NC(=O)[C@H](CO)NC(=O)[C@@H](NC(=O)[C@H](Cc1ccccc1)NC(=O)[C@@H](NC(=O)CNC(=O)[C@H](CCC(=O)O)NC(=O)[C@@H](C)NC(=O)[C@@H](N)Cc1ccc(O)cc1)[C@@H](C)O)[C@@H](C)CC)C(=O)N[C@@H](C)C(=O)N[C@@H](CC(C)C)C(=O)N[C@@H](CC(=O)O)C(=O)N[C@@H](CCCCN)C(=O)N[C@H](C(=O)N[C@@H](Cc1c[nH]cn1)C(=O)N[C@@H](CCC(N)=O)C(=O)N[C@@H](CCC(N)=O)C(=O)N[C@@H](CCC(=O)O)C(=O)N[C@@H](Cc1ccccc1)C(=O)N[C@H](C(=O)N[C@@H](CCC(=O)O)C(=O)N[C@@H](Cc1c[nH]c2ccccc12)C(=O)N[C@@H](CC(C)C)C(=O)N[C@@H](CCCCN)C(=O)N[C@@H](C)C(=O)NCC(=O)NCC(=O)N[C@@H](Cc1c[nH]cn1)C(=O)N1CCC[C@H]1C(=O)N[C@@H](CO)C(=O)NCC(=O)N[C@@H](C)C(=O)N1CCC[C@H]1C(=O)N1CCC[C@H]1C(=O)N1CCC[C@H]1C(=O)N[C@@H](CO)C(=O)N[C@@H](CSCCS(=O)(=O)CCN1CCN(CC(=O)O)CCN(CC(=O)O)CCN(CC(=O)O)CC1)C(N)=O)[C@@H](C)CC)[C@@H](C)CC` [[^68Ga]Ga-C803-GIP, metal not drawn], the “time stable in human plasma” value in series [1] (incubated <30 s, 5, 45, 90 min) was “at least 90 min”. Besides, in series [1] (up to 90 min), the “stability in human plasma (in words)” value is listed as “stable”. Also, in series [2], the “radiochemical purity on post-production storage (stability)” value is reported as “over 91%”.
